In patent publication US20030049255A1 (published 2003):

T1: recombinant human IL-1 receptor Accessory Protein (AcP):Fc (human, UniProt Q9NPH3 21-359)
T1 construct: also called human IL-1AcP:Fc; soluble recombinant human IL-1AcP:Fc
T1 sequence: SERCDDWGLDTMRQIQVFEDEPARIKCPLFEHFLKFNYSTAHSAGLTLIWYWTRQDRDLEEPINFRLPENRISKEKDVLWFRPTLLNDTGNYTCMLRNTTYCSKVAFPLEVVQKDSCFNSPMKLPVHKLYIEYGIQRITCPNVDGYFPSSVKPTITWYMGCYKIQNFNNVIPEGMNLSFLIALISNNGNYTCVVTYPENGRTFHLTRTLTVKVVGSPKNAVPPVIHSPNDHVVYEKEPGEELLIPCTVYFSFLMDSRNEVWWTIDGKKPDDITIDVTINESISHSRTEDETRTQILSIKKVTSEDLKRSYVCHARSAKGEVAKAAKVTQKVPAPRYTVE

B1: cynomolgus IL-1α (ligand, cynomolgus macaque, UniProt P79340 113-271, looked up)
chain: SAPFSFLSNMTYHFIRIIKHEFILNDTLNQTIIRANDQYLTAAAIHNLDEAVKFDMGAYTSSKDDTKVPVILRISKTQLYVSAQDEDQPVLLKEMPEIPKTITGSETNFLFFWETHGTKNYFISVAHPNLFIATKHDNWVCLAKGLPSITDFQILENQA
notes: also called cynomolgus macaque IL-1α
B2: human IL-1α (ligand, UniProt P01583 113-271, looked up)
chain: SAPFSFLSNVKYNFMRIIKYEFILNDALNQSIIRANDQYLTAAALHNLDEAVKFDMGAYKSSKDDAKITVILRISKTQLYVTAQDEDQPVLLKEMPEIPKTITGSETNLLFFWETHGTKNYFTSVAHPNLFIATKQDYWVCLAGGPPSITDFQILENQA
notes: also called IL-1 alpha
B3: cynomolgus IL-1ra (ligand, cynomolgus macaque, UniProt Q866R8 26-177, looked up)
chain: RPSGRKPSKMQAFRIWDVNQKTFYLRNNQLVAGYLQGPNVNLEEKIDVVPIEPHALFLGIHGGKMCLSCVKSGDETRLQLEAVNITDLSKNRKQDKRFAFVRSDSGPTTSFESAACPGWFLCTAMEADQPVSLTNMPDKGVMVTKFYFQEDE
notes: also called cynomolgus macaque IL-1 receptor antagonist
B4: recombinant human type II IL-1R:Fc (Fc fusion)
chain: FTLQPAAHTGAARSCRFRGRHYKREFRLEGEPVALRCPQVPYWLWASVSPRINLTWHKNDSARTVPGEEETRMWAQDGALWLLPALQEDSGTYVCTTRNASYCDKMSIELRVFENTDAFLPFISYPQILTLSTSGVLVCPDLSEFTRDKTDVKIQWYKDSLLLDKDNEKFLSVRGTTHLLVHDVALEDAGYYRCVLTFAHEGQQYNITRSIELRIKKKKEETIPVIISPLKTISASLGSRLTIPCKVFLGTGTPLTTMLWWTANDTHIESAYPGGRVTEGPRQEYSENNENYIEVPLIFDPVTREDLHMDFKCVVHNTLSFQTLRTTVKE
notes: also called human IL-1RII:Fc; soluble recombinant human type II IL 1R:Fc; not shown: Fc portion of human IgG

Experiments:
[1] = target: recombinant rhesus IL-1β (rhesus) (UniProt P48090); test: cell-based or functional assay
[2] = target: recombinant rhesus IL-1α (rhesus) (UniProt P48089); test: cell-based or functional assay
[3] = target: cynomolgus IL-1β (cynomolgus macaque) (UniProt P79182); test: SPR, BIACORE 3000, both Fc fusions captured, ligand in flow
[4] = target: B4; test: SPR, BIACORE 3000, receptor:Fc captured, ligand in flow, without cynomolgus IL-1AcP
[5] = target: T1, recombinant human IL-1 receptor …; test: SPR, BIACORE 3000, Fc fusion captured on anti-human IgG Fc, ligand in flow
Protocol: (§1) The relative ability of purified soluble type II IL-1R to bind IL-1α, IL-1β and IL-1ra was measured using a BIACORE 3000 instrument with a research grade CM5 sensor chip at 25 degrees C. Soluble recombinant human type II IL-1R was fused to the Fc portion of human IgG so that the resulting type II IL-1R:Fc construct could be bound to a goat anti-human IgG, Fc chain-specific antibody immobilized to the chip using standard amine coupling chemistry. A similar construct was made using IL-1AcP for the same reason. When IL-1AcP:Fc was used in combination with type II IL-1R:Fc, it was mixed in a 1:1 molar ratio before injection into the BIACORE 3000. Kinetic data were obtained by running a range of concentrations of IL-1α, IL-1β, and IL-1 ra over a flow cell that contained receptor bound to immobilized antibody, and a reference cell of immobilized antibody alone. […] In the presence of human IL-1AcP:Fc, the apparent equilibrium binding constants of human type II IL-1R:Fc for human IL-1α and IL-1β were increased >100-fold over those measured in the absence of human IL-1AcP. Human IL-1AcP:Fc slowed the dissociation rates of both ligands by 100-fold. In contrast, human IL-1AcP:Fc had little effect on the affinity of human IL-1RII:Fc for human IL-1ra. In the absence of receptor, no binding of human IL-1α, IL-1β, and IL-1ra to human IL-1AcP:Fc was detected.

human IL-1α = target: B2; test: SPR, BIACORE 3000, receptor:Fc captured on anti-human IgG Fc, ligand in flow, 25 C, without IL-1AcP
Protocol: as §1

Sequence of cynomolgus IL-1β (cynomolgus macaque) (P79182 117-268 limits assumed): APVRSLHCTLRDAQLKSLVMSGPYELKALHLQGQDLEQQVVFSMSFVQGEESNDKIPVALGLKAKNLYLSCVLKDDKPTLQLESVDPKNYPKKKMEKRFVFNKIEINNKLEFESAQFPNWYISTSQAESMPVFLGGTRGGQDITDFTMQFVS
Sequence of recombinant rhesus IL-1β (rhesus) (P48090 117-269 limits assumed): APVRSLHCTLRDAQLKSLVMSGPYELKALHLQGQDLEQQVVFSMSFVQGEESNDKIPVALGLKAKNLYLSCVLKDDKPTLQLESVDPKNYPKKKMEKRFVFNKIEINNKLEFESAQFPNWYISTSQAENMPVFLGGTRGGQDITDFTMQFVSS

Molecule: soluble IL-1R Type II in the presence of IL-1RAcP (from UniProt P27930 14-343; Q9NPH3 21-367)
- NF-κB luciferase reporter activity in COS7 cells [1]: 25 fold
- NF-κB luciferase reporter activity in COS7 cells [2]: 25 times

Molecule: human type II IL-1R:Fc in the presence of cynomolgus IL-1AcP:Fc (from UniProt A0A7N9CMI5 18-336)
- Ka [3]: 1.8e+08 M⁻¹
- fold increase of apparent affinity over that without IL-1AcP [3]: > 100 fold

Molecule: B1
- Ka [4]: 1.4e+06 M⁻¹

Molecule: B2
- binding result [5]: no binding

Molecule: B3
- Ka [4]: 6.2e+07 M⁻¹

Molecule: B4
- fold lower affinity than for human IL-1β (human IL-1α): 100 fold
